Article PMC10977726 (PLOS ONE, 2024)

Target: human IgG Fc (Biotin-SP-ChromPure Human IgG, Fc fragment) (human, biotin (Biotin-SP))
Assay: SPR
Details: both partners purified

## ENLYFQGECKGKGAKCSSISIHDAHCCTGSCRSGKC (designed binder) [His(6)-SUMO-TEV-Ig-CON-5 fusion protein]
  Kd: 22.2 nM
